These results are taken from the RNAGym collection of RNA variant scans (doi:10.1073/pnas.2313332121).

Variants at the floor of the assay were thinned out.

B1: TPR 5TU (parent)
chain: GGAUCUUCUCGAUCUAACAAAAAAGACAAAUCUGCCACAAAGCUUGAGAGCAUCUUCGGAUGCAGAGGCGGCAGCCUUCGGUGGCGCGAUAGCGCCAACGUUCUCAACUAUGACACGCAAAACGCGUGCUCCGUUGAAUGGAGUUUAUCAUG

The variants in the series derive from B1. Put plainly: polymerase ribozyme fitness, log enrichment relative to wild type (log ratio); higher = more active; in vitro selection for triplet polymerase activity. The method in brief: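 To select mutant libraries of each subunit of a heterodimeric triplet polymerase ribozyme, built by PCR and transcribed, each was annealed with a biotinylated primer, partner subunit and triplets, then incubated frozen at −7 °C. Extended constructs were gel-excised, captured on streptavidin beads and amplified by RT-PCR, in one round carried out in triplicate. Illumina sequencing of input and output libraries kept genotypes with ≥10 input reads and ≥1 read per output. Fitness is the base-2 logarithm of genotype enrichment relative to wild-type enrichment, from inverse-variance-weighted replicate averages.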
On to A41C U55A A97G, for which the “polymerase ribozyme fitness (log ratio)” value was -0.161.
The result for A40G U53A A73U C103G reads at most -4.2.
In the case of A40U C79U A121G, the “polymerase ribozyme fitness (log ratio)” value is -2.75.
As to A41C C85U C99G C132G U139A, the “polymerase ribozyme fitness (log ratio)” value was at most -4.2.
As to A40U G68A, the “polymerase ribozyme fitness (log ratio)” value was -4.03.
For A40U C75G C85G U135G G140U, the “polymerase ribozyme fitness (log ratio)” value is at most -4.2.
A41G A60U U130C: the “polymerase ribozyme fitness (log ratio)” value is -0.614.
On to A41C C116G, for which the “polymerase ribozyme fitness (log ratio)” value is -0.175.
For the variant A40U U61G C69U, the “polymerase ribozyme fitness (log ratio)” value was -1.67.
Take A40U G68C C96U C105A: the “polymerase ribozyme fitness (log ratio)” value is at most -4.2.
With A40U C114U, the “polymerase ribozyme fitness (log ratio)” value is -2.19.
With A41C U55A G58C A98U, the “polymerase ribozyme fitness (log ratio)” value was -0.108.
Consider A41C A89U C123G, for which the “polymerase ribozyme fitness (log ratio)” value is -1.41.
Regarding A41C A89U C95U G124A C125G, the “polymerase ribozyme fitness (log ratio)” value was -1.75.
As for A40U G68A C116A A137U, the “polymerase ribozyme fitness (log ratio)” value is at most -4.2.
Then A41G U53G, with -0.77.
For the variant A40G G67U C85A A98U U144C U145A, the “polymerase ribozyme fitness (log ratio)” value was at most -4.2.
Then A40U C85A U144A, with -0.577; and A41C C43U C63U G88U, with at most -4.2; and A41G A60G A97U, with -0.347.
Consider A40U G50U G80A G126A C132G, for which the “polymerase ribozyme fitness (log ratio)” value is at most -4.2.
Then A41C A91C, with at most -4.2.
Then A41C A91G, with -2.85; and A41C C96A, with -0.56.
A41C A60G C75A A138U G141U U146C U148C: the “polymerase ribozyme fitness (log ratio)” value was at most -4.2.
On to A41C A60U A91G U134C, for which the “polymerase ribozyme fitness (log ratio)” value is -4.11.
For A41G A98U C103G A138C, the “polymerase ribozyme fitness (log ratio)” value was at most -4.2.
As for A41G U53C U55A U82G U127G, the “polymerase ribozyme fitness (log ratio)” value is -4.02.
A40U A106G C131U: the “polymerase ribozyme fitness (log ratio)” value was 1.54.
For the variant A41C G46A U90A A150G, the “polymerase ribozyme fitness (log ratio)” value was at most -4.2.
For A41C C63G G70C C85U A97C U144A, the “polymerase ribozyme fitness (log ratio)” value is at most -4.2.
For the variant A40U G50C A52G C85A U90C A97U, the “polymerase ribozyme fitness (log ratio)” value was at most -4.2.
On to A41C C85G A113C, for which the “polymerase ribozyme fitness (log ratio)” value was -4.19.
Take A41C A106G G133C A147U: the “polymerase ribozyme fitness (log ratio)” value was -1.68.
For the variant A40U C57U C76A, the “polymerase ribozyme fitness (log ratio)” value is -0.244.
Then A41G G50C C85U C87A C103U C105G A115U, with at most -4.2; and A41C C87A C95U A115C U151G, with at most -4.2.
Turning to A40G U56G C85A A115U U134C, the “polymerase ribozyme fitness (log ratio)” value was -4.09.
For A41U C72G U90G C99G G112U C118U, the “polymerase ribozyme fitness (log ratio)” value is at most -4.2.
Turning to A40U C76A C79A C114U G143U U146C U148A, the “polymerase ribozyme fitness (log ratio)” value is at most -4.2.
Consider A41C C63U C76G C93A U127A, for which the “polymerase ribozyme fitness (log ratio)” value was at most -4.2.
Consider A41C U56A A91G A97G A142U, for which the “polymerase ribozyme fitness (log ratio)” value was -3.86.
The result for A41C A52C G70A C118U reads at most -4.2; that for A40U A52G G58C C75U G141U, -2.07; that for A41C U56A C63A G83A, -0.629.
As to A40U C69U G84C G143C, the “polymerase ribozyme fitness (log ratio)” value was at most -4.2.
For the variant A41C A107C G133A U144G, the “polymerase ribozyme fitness (log ratio)” value was at most -4.2.
Turning to A41G A49C G68U C76U C93U A97U, the “polymerase ribozyme fitness (log ratio)” value is at most -4.2.
The result for A40U U53C reads 0.103; that for A40U U53A, -0.83; that for A41C C93G U144C, -3.7.
Regarding A41G U44A U55A, the “polymerase ribozyme fitness (log ratio)” value is -3.41.
Consider A41C C105A, for which the “polymerase ribozyme fitness (log ratio)” value was -2.1.
Then A41C A49C, with -4.01; and A41C G50C G83U C95A C99U C105G A137C, with at most -4.2.
Then A41C C87G G100C G126A A142C, with at most -4.2.
Turning to A41G G59A G81U C95A C114U, the “polymerase ribozyme fitness (log ratio)” value is -1.27.
Take A41G U53A C85A: the “polymerase ribozyme fitness (log ratio)” value is -2.72.
As to A41C C57A C96U, the “polymerase ribozyme fitness (log ratio)” value was -0.533.
The result for A40U C87U A89G reads -3.2; that for A40U C57A G86A A110U C125A G141U, at most -4.2.
The result for A41C A52G G62C C95G C131A A142U C149A reads at most -4.2; that for A41U A73U, -1.65; that for A41C C57G G136U, -3.64.
For the variant A41U A120G G143A, the “polymerase ribozyme fitness (log ratio)” value is -2.06.
With A40G U56A, the “polymerase ribozyme fitness (log ratio)” value was -1.21.
The result for A40U C63G reads 0.0879.
Take A40U A107U C132G: the “polymerase ribozyme fitness (log ratio)” value was at most -4.2.
For A40U U55A G86A G133U, the “polymerase ribozyme fitness (log ratio)” value was at most -4.2.
Consider A41C C54U A110G, for which the “polymerase ribozyme fitness (log ratio)” value was -2.74.
For the variant A41G G59A U61A, the “polymerase ribozyme fitness (log ratio)” value was -0.462.
As for A40U U61A A107U G128U U151C, the “polymerase ribozyme fitness (log ratio)” value is at most -4.2.
The result for A41C U134G reads -2.46; that for A41U C93A, -3.19.
With A41C C54A U56A A73U A89U U101G A115C C129G U134A, the “polymerase ribozyme fitness (log ratio)” value is at most -4.2.
As for A41U C85U A91U A107U, the “polymerase ribozyme fitness (log ratio)” value is at most -4.2.
On to A41C G67C G68A G88C G92A A107C, for which the “polymerase ribozyme fitness (log ratio)” value is at most -4.2.
On to A41C G46U C76A U102A C131G, for which the “polymerase ribozyme fitness (log ratio)” value was at most -4.2.
Then A41C C87U A120C, with -1.53; and A40U A137U G140C, with -4.19.
For the variant A41C G68C, the “polymerase ribozyme fitness (log ratio)” value was at most -4.2.
The result for A41C U135G reads -3.54; that for A41C G58C U82G A106G A137G, -2.57.
Then A41C C51A U56A G58C U82C C87A G136U, with at most -4.2.
